Consider 4 molecules from paper PMC6386500 (PLoS ONE, 2019).

A word on the stoichiometry N: it is the number of molecules, sites or subunits per partner or assembly. One may read the Ki as the dissociation constant of the complex between target and ligand, obtained from inhibition or displacement. Low values mean a stronger hold on the target, high ones a looser hold on the target. As usually defined, the Km is the substrate concentration at which the rate is half of its maximum. What is called kcat is the maximal rate divided by the concentration of active sites. As a reminder, the kcat/Km is the turnover number divided by the Michaelis constant.

The target in data set [1] is Citrate synthase from Metallosphaera sedula (Metallosphaera sedula). In words: SEC; HiPrep 26/60 Sephacryl S-300 HR column, buffer A (40 mM Tris-HCl, pH 8.0), 277 K; eluted at approximately 85 kDa. For orientation: SEC sorts molecules by how far they enter the pores of the column.
For data set [2], the target named is T1, MsCS (citrate synthase from Metallosphaera sedula) (Metallosphaera sedula, UniProt A4YGX6).
T1 construct: gene Msed_1522; C-terminal 6xHis tag (pET-30a, NdeI/XhoI), E. coli BL21(DE3)-T1R; homodimer about 85 kDa; modelled domains Met1-Arg370; His214, His253, Asp307 catalytic
Kind of data set: DTNB absorbance at […] nm, inhibition kinetics. The format is biochemical.

Substrate in data set [3]: CC(=O)SCCNC(=O)CCNC(=O)[C@H](O)C(C)(C)COP(=O)(O)OP(=O)(O)OC[C@H]1O[C@@H](n2cnc3c(N)ncnc32)[C@H](O)[C@@H]1OP(=O)(O)O
In words: purified protein. Conditions: 100 mM potassium phosphate pH 8.0, 150 mM NaCl, 50 uM DTNB, 298 K, oxaloacetate concentration not stated, no inhibitor, 25.0 °C. The format is biochemical, Metallosphaera sedula.

Substrate in data set [4]: O=C(O)CC(=O)C(=O)O
Kind of data set: purified protein. It is filed as biochemical, Metallosphaera sedula. Conditions: 0.5 mM acetyl-CoA, 100 mM potassium phosphate pH 8.0, 150 mM NaCl, 50 uM DTNB, 298 K, no inhibitor, 25.0 °C.

For “Citrate synthase from Metallosphaera sedula (enzyme)”, the stoichiometry N in data set [1] worked out at 2.

`NC(=O)C1=CN([C@@H]2O[C@H](COP(=O)(O)OP(=O)(O)OC[C@H]3O[C@@H](n4cnc5c(N)ncnc54)[C@H](O)[C@@H]3O)[C@@H](O)[C@H]2O)C=CC1` [NADH]: in data set [2], the Ki came out at 4.41 mM.

As to `Nc1ncnc2c1ncn2[C@@H]1O[C@H](COP(=O)(O)OP(=O)(O)OP(=O)(O)O)[C@@H](O)[C@H]1O` [ATP], in data set [2], affinity was put at a Ki of 4.34 mM.

B1: MsCS (citrate synthase from Metallosphaera sedula) (Metallosphaera sedula DSM 5348) (protein)
chain: MELRKGLEDIAIKETSITYIDGELGRLYYRGYSIFDLASFSNFEEVAYLLWYGKLPTRHELDDFKSRLAEERSISEDISTFVKRTAKFGNPMDILRTTVSMMGLEDRSEGDLIGKAIKMTAKIPTIISLIQRTRRNQEFVEPDPSLSHSENFLYMIRGERPSPSDTRVLDVSLMLHMDHEMNASTMACLVVASTLSDIYSSVVAGISALKGPLHGGANSEALKQFMEIETPDNVEKYVMNKLSSGQRLMGFGHRIYKTMDPRAKILKEYANQLSKNEEIKRLFEIANRVEEIGIKILGKRGIYPNVDFYSGLVFYAMGFDPDLFPTIFASARVIGWTAHVDEYLKDNKLIRPKAIYVGDLGKRYVPIEER
notes: C-terminal 6xHis tag (pET-30a, NdeI/XhoI), E. coli BL21(DE3)-T1R; homodimer about 85 kDa; modelled domains Met1-Arg370; His214, His253, Asp307 catalytic
For B1, in the data set “purified protein [3]”, the Km is reported as 0.0165 mM, the kcat turned out to be 8.56 s⁻¹ and the kcat/Km worked out at 519000 M⁻¹ s⁻¹. Besides, in “purified protein [4]”, the Km was 0.0414 mM and the kcat amounted to 7.62 s⁻¹.
